The target of this experiment is SARS-CoV-2 Omicron BA.4/5 spike (S) trimer, prefusion-stabilised ectodomain (SARS-CoV-2 (Omicron BA.4/5) | bacteriophage T4) (UniProt P0DTC2). In words: cryo-EM structure.

The substance “SARS-CoV-2 Omicron BA.4/5 spike (S) trimer, prefusion-stabilised ectodomain (from UniProt P0DTC2 14-1208) (complex)” registered a stoichiometry N of 3.

As usually defined, the stoichiometry N is the number of molecules, sites or subunits per partner or assembly.

Source of the values: PMC10267556.
